Article PMC10482377, “Septum site placement in Mycobacteria – identification and characterisation of mycobacterial homologues of Escherichia coli MinD” (Microbiology, 2023)

Target: T1, M. tb ParB with C-terminal 6xHis-tag (M. tuberculosis, UniProt P9WIJ9 1-344)
T1 construct: not shown: 6xHis, C-terminal, kept
T1 sequence: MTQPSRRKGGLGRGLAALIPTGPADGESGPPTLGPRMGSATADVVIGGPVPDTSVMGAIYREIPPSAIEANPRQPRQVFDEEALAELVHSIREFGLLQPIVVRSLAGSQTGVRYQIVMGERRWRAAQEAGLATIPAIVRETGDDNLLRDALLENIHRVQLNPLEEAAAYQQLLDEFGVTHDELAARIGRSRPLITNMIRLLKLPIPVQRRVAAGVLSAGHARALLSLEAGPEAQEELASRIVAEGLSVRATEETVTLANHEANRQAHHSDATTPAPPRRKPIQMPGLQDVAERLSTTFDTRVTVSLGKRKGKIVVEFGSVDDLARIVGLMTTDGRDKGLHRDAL
Assay: pull-down; equimolar bait (GST-Rv1708) and prey (His-tagged) incubated O/N at 4 °C in PBS + 0.1 % Triton X-100, then GSH beads 4 h at 4 °C; washed; Western blot with anti-6xHis
Settings: both partners purified

B1: GST-Rv1708 (natural protein)
chain: MPAGLPGQASVAVRLSCDVPPDARHHEPRPGMTDHPDTGNGIGLTGRPPRAIPDPAPRSSHGPAKVIAMCNQKGGVGKTTSTINLGAALGEYGRRVLLVDMDPQGALSAGLGVPHYELDKTIHNVLVEPRVSIDDVLIHSRVKNMDLVPSNIDLSAAEIQLVNEVGREQTLARALYPVLDRYDYVLIDCQPSLGLLTVNGLACTDGVIIPTECEFFSLRGLALLTDTVDKVRDRLNPKLDISGILITRYDPRTVNSREVMARVVERFGDLVFDTVITRTVRFPETSVAGEPITTWAPKSAGALAYRALARELIDRFGM
notes: also called M. tb minD; not shown: GST, N-terminal, kept
  binding result: binds
